In patent US20080090771A1, “ABUSE-RESISTANT H[…], COMPOSITIONS AND METHODS OF USING THE SAME” (SHIRE LLC, priority 2006, published 2008):
No end group written: not given here.

What was measured:
[1] = Oral bioavailability of hydrocodone conjugates in rats; settings: for bioavailability (% HC) oral AUC / bioavailability (% HC) oral Cmax: rats, relative to hydrocodone; for Oral:IN Index AUC: ratio of oral to intranasal AUC (% HC); for Oral:IN Index Cmax: ratio of oral to intranasal Cmax (% HC)
[2] = Intranasal bioavailability of hydrocodone conjugates in rats; settings: relative to hydrocodone

Substance	bioavailability (% HC) oral AUC [1] [% HC]	bioavailability (% HC) oral Cmax [1] [% HC]	Oral:IN Index AUC [1]	Oral:IN Index Cmax [1]	bioavailability (% HC) IN AUC [2] [% HC]	bioavailability (% HC) IN Cmax [2] [% HC]
Asp-Asp-Asp-Asp-Ile-HC (DDDDI-hydrocodone)	79	110	2.19	1.72	36	64
Asp-Asp-Gly-Gly-Ile-HC (DDGGI-hydrocodone)	82	80	1.71	1.19	48	67
Asp-Asp-Ile-HC	280	238	4.75	2.56	59	93
Asp-Asp-Phe-Phe-Ile-HC (DDFFI-hydrocodone)	115	167	2.05	2.69	56	62
Asp-Asp-Pro-Pro-Ile-HC (DDPPI-hydrocodone)	92	95	2.04	1.19	45	80
Glu-Glu-Asp-Asp-Ile-HC (EEDDI-hydrocodone)	108	129	2.04	1.59	53	81
Glu-Glu-Gly-Gly-Ile-Hydrocodone (EEGGI-hydrocodone) [Glu-Glu-Gly-Gly-Ile-HC]	81	77	–	–	50	56
Glu-Glu-Gly-Gly-Phe-HC (EEGGF-hydrocodone)	110	112	1.24	1.15	89	97
Glu-Glu-Ile-HC	83	112	1.60	1.90	52	59
Glu-Glu-Phe-Phe-Ile-HC (EEFFI-hydrocodone)	96	129	1.41	1.70	68	76
Glu-Glu-Phe-Phe-Phe-Hydrocodone (EEFFF-hydrocodone) [Glu-Glu-Phe-Phe-Phe-HC]	83	89	3.07	1.89	27	47
Gly-Gly-Glu-Glu-Ile-HC (GGEEI-hydrocodone)	96	119	1.45	1.55	66	77
Gly-Gly-Pro-Pro-Ile-HC (GGPPI-hydrocodone)	94	121	2.14	2.16	44	56
Leu-Pro-Phe-HC	106	125	1.28	1.24	83	101
Lys-Lys-Asp-Asp-Ile-HC (KKDDI-hydrocodone)	90	121	2.31	2.16	39	56
Lys-Lys-Ile-HC	80	76	1.18	0.81	68	94
Lys-Lys-Pro-Pro-Ile-HC (KKPPI-hydrocodone)	80	76	1.18	0.81	68	94
Pro-Ile-Ile-HC	104	99	1.21	0.97	86	102
Pro-Leu-Ile-HC	141	172	1.62	1.70	87	101
Pro-Pro-Leu-HC	94	108	2.04	2.25	46	48
Tyr-Tyr-Ile-HC	145	234	7.25	6.88	20	34
Tyr-Tyr-Phe-Phe-Ile-HC	113	63	4.35	1.85	26	34
Tyr-Tyr-Pro-Pro-Ile-HC (YYPPI-hydrocodone)	218	213	–	–	10	10
